Assay results from patent US20240228579A1 (Innovent, published 2024).
Positions count from the first letter of the chain named. Names may count otherwise. Each block holds one binder with its values, some of them ahead of it.

Columns and labels:
[1] = target: T1, Claudin18.2 (cp0007, Genscript) (UniProt P56856-2 1-261, limits assumed); assay: BLI (Octet), antibody on AHC sensor, Claudin18.2 100 nM
T1 construct: Bought antigen used in BLI; also called Claudin18.2 antigen; the antigen
T1 sequence (looked up): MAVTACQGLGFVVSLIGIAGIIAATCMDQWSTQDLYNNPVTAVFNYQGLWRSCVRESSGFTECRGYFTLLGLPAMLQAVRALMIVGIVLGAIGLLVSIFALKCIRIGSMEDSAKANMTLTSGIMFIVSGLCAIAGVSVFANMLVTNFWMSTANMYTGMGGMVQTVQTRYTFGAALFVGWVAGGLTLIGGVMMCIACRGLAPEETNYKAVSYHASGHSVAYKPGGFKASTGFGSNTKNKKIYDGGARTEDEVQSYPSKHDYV
Procedure: The antibody and Claudin18.2 (cp0007, Genscript) were diluted to 100 nM, respectively.
Detection was conducted using Fortebio Octet Red96e, and the sensors were arranged according to the positions of the samples. […] After the experiment was completed, KD values were analyzed using ForteBio Octet analysis software.

[2] = target: T2, Human CD64/FCGR1A protein (human, UniProt P12314 16-288, limits assumed); assay: SPR (Biacore T200);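 as to result: His-tagged Fc receptors captured on an anti-His antibody chip, Fc-variant antibodies flowed as analyte, 60 s association and 60 s dissociation, fitted by 1:1 or steady-state model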
T2 construct: Bought, his-tagged; also called FcγRI; not shown: his tag
T2 sequence (P12314 16-288 limits assumed): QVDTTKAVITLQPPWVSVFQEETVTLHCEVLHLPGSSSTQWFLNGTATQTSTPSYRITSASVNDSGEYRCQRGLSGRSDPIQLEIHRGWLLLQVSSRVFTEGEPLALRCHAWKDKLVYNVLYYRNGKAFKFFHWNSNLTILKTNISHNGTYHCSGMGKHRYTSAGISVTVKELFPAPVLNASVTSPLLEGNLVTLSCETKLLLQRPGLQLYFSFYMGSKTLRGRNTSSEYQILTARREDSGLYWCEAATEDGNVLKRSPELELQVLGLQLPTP

[3] = target: T2, Human CD64/FCGR1A protein; assay: SPR (Biacore T200), his-tagged CD64 captured on anti-His CM5 chip, antibody as analyte, pH 7.4, 1:1 binding fit
Source text: (§1) The specific procedures were as follows: Each of FcγR and FcRn proteins (for information of each Fc receptor, see Table 2 below) containing a histidine tag was captured to the chip surface to which anti-histidine antibodies were coupled, and the binding and dissociation between the proteins on the chip surface and antibodies in the mobile phase were detected to obtain affinity and kinetic constants.
(§2) Affinity assay: Each cycle included capture of the receptor, binding of a certain concentration of the antibody carrying the Fc region mutation of the present application, and regeneration of the chip. […] In each cycle, the antibody mutant solution flowed over the chip surface at a flow rate of 30 μL/min, with the binding time of 60 s and the dissociation time of 60 s. […] The obtained data were analyzed using Biacore T200 analysis software (version number 3.1) and using an analysis 1:1 binding or homeostasis analysis model to obtain the corresponding results.

[4] = target: T3, human C1q (human, UniProt P02745 23-245; P02746 28-253; P02747 29-245); assay: BLI (Octet), biotinylated antibody on SA sensor
T3 construct: Bought C1q (Complement Technology); also called C1q antigen
T3 sequence (P02745 23-245 limits assumed, chain 1 of 3): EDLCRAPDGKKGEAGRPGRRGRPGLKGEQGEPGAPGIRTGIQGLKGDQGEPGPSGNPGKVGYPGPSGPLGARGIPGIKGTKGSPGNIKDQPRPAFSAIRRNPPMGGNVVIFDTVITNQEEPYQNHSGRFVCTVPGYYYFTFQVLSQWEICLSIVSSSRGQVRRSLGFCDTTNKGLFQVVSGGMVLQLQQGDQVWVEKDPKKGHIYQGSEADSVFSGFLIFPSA
T3 sequence (P02746 28-253 limits assumed, chain 2 of 3): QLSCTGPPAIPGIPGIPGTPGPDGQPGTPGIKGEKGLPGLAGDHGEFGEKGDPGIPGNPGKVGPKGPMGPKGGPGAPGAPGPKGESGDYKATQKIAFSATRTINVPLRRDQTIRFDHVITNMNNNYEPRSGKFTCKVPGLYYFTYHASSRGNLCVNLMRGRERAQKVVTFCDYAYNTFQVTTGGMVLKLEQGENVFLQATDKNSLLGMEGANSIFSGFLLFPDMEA
T3 sequence (P02747 29-245 limits assumed, chain 3 of 3): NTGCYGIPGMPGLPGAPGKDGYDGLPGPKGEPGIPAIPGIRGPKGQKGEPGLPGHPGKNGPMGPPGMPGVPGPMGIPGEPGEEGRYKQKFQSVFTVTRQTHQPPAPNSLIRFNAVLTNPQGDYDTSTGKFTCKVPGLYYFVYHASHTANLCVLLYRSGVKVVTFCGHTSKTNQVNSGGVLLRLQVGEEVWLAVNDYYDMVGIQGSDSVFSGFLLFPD
Procedure: (§3) The antibody was diluted to approximately 100 nM, and C1q (Δ099, Complement Technology) was diluted to 40 nM.
(§4) Detection was conducted using Fortebio Octet Red96e, and the sensors were arranged according to the positions of the samples. […] After the experiment was completed, KD values were analyzed using ForteBio Octet analysis software, the coordinate axis data were derived, and Graphpad Prism 8 software was used for plotting.

[5] = target: T4, Human FcRn/FCGRT & B2M heterodimeric protein (human, UniProt P55899 24-297; P61769 21-119); assay: SPR (Biacore T200), FcRn captured, antibody in flow, pH 6.0; pH 6.0
T4 construct: Bought heterodimer with His and Strep II tags
Source text: as §1, §2

[6] = target: T3, human C1q; assay: BLI (Octet), biotinylated antibody on SA sensor, C1q 40 nM
Procedure: as §3, §4

[7] = target: T5, Human FcγRIIIB/CD16B (NA2) (human, UniProt O75015 17-200, limits assumed); assay: SPR (Biacore T200);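 also: His-tagged Fc receptors captured on an anti-His antibody chip, Fc-variant antibodies flowed as analyte, 60 s association and 60 s dissociation, fitted by 1:1 or steady-state model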
T5 construct: Bought, his-tagged; not shown: his tag
T5 sequence (O75015 17-200 N65S limits assumed): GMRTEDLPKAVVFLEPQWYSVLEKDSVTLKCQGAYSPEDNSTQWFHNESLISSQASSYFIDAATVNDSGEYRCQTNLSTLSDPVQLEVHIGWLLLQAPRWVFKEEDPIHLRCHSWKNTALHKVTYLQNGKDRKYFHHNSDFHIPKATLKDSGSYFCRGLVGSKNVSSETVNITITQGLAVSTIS

[8] = target: T6, Human FcγRIIIA/CD16A (F176) protein (human, UniProt P08637 17-208); assay: SPR (Biacore T200);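 also: His-tagged Fc receptors captured on an anti-His antibody chip, Fc-variant antibodies flowed as analyte, 60 s association and 60 s dissociation, fitted by 1:1 or steady-state model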
T6 construct: Bought, his-tagged; not shown: his tag
T6 sequence (P08637 17-208 limits assumed): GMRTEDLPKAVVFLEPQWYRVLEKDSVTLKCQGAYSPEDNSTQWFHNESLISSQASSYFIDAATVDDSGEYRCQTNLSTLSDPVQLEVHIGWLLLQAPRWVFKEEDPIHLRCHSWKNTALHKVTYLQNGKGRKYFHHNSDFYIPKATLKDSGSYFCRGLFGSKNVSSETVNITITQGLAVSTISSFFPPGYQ

[9] = target: T7, Human FcγRIIIA/CD16A (V176) protein (human, UniProt P08637 17-208); assay: SPR (Biacore T200);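 also: His-tagged Fc receptors captured on an anti-His antibody chip, Fc-variant antibodies flowed as analyte, 60 s association and 60 s dissociation, fitted by 1:1 or steady-state model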
T7 construct: Bought, his-tagged; not shown: his tag
T7 sequence (P08637 17-208 F176V limits assumed): as the sequence (P08637 17-208 limits assumed) above, with F160V counted along it

[10] = target: T8, Human CD32B/FCGR2B protein (human, UniProt P31994 43-217, limits assumed); assay: SPR (Biacore T200)
T8 construct: Bought, his-tagged; also called FcγRIIb; not shown: his tag
T8 sequence (looked up): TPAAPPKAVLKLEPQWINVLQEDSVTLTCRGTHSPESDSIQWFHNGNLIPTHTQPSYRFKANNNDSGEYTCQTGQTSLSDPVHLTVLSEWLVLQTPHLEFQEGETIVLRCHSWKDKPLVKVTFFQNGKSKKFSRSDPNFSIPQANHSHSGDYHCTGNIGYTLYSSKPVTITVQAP

[11] = target: T9, Human CD32A/FCGR2A protein (167his) (human, UniProt P12318 34-218, limits assumed); assay: SPR (Biacore T200)
T9 construct: Bought, his-tagged; also called CD32A (H167); CD32A H167; not shown: his tag
T9 sequence (looked up): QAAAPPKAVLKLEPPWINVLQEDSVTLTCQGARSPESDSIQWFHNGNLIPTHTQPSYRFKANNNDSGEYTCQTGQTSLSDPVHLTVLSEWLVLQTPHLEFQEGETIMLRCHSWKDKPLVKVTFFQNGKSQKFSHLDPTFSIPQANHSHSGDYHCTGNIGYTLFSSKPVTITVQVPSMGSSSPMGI

[12] = target: T10, Human FcγRIIIB/CD16B (NA1) (human, UniProt O75015 17-200, limits assumed); assay: SPR (Biacore T200)
T10 construct: Bought, his-tagged; not shown: his tag
T10 sequence (O75015 other isoform, or with tags, fused parts or gaps limits assumed): as the sequence (O75015 17-200 N65S limits assumed) above, with S20R, S49N, N66D, I90V counted along it

[13] = target: T11, Human CD32A/FCGR2A protein (167Arg) (human, UniProt P12318 34-218, limits assumed); assay: SPR (Biacore T200)
T11 construct: Bought, his-tagged; also called CD32A (R167); CD32A R167; not shown: his tag
T11 sequence (looked up): T9 sequence (looked up) with H134R

[14] = target: T2, Human CD64/FCGR1A protein; assay: SPR (Biacore T200), his-tagged receptor captured, antibody in flow
Source text: as §1, §2

[15] = target: T2, Human CD64/FCGR1A protein; assay: SPR (Biacore T200); remark: listed apart in the source
Source text: as §1, §2

B1: Fcmut-03 (antibody, human IgG1, kappa)
heavy: QVQLVQSGAEVKKPGSSVKVSCKASGYSFSSYNIHWVRQAPGQGLEWMGYIAPFQGDSRYNQKFKGRVTITADKSTSTAYMELSSLRSEDTAVYYCARLNRGNSLDYWGQGTLVTVSSASTKGPSVFPLAPSSKSTSGGTAALGCLVKDYFPEPVTVSWNSGALTSGVHTFPAVLQSSGLYSLSSVVTVPSSSLGTQTYICNVNHKPSNTKVDKKVEPKSCDKTHTCPPCPAPELLGGPSVFLFPPKPKDTLMISRTPEVTCVVVDVSHEDPEVKFNWYVDGVEVHNAKTKPREEQYNSTYRVVSVLTVLHQDWLNGKEYKCKVSNKALGPIEKTISKAKGQPREPQVYTLPPSREEMTKNQVSLTCLVKGFYPSDIAVEWESNGQPENNYKTTPPVLDSDGSFFLYSKLTVDKSRWQQGNVFSCSVMHEALHNHYTQKSLSLSPGK
light: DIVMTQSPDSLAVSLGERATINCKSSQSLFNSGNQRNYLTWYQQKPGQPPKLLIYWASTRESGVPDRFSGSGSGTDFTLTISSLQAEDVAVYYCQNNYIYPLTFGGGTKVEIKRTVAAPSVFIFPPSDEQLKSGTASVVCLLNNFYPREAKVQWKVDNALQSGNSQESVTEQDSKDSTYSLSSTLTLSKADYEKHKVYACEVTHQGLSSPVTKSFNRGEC
notes: IgG1-mut of Fcmut-01: deletion of 329, G at 330 (EU index)
Kd [1]: 2.9 nM | Response [1]: 0.15 nm | koff [1]: 0.0002 s⁻¹ | kon [1]: 69000 M⁻¹ s⁻¹ | fold reduction of binding against Fcmut-01 [2]: 12.9 times | koff [3]: 0.0377 s⁻¹ | kon [3]: 2.74e+06 M⁻¹ s⁻¹ | binding result [4]: no binding (tested: C1q 40 nM) | Kd [5]: 317 nM | Response [6]: 0.0016 nm | binding result [7]: no binding (tested: 400 nM) | binding result [8]: no binding (tested: 400 nM) | binding result [9]: no binding (tested: 400 nM) | binding result [10]: no binding (tested: 400 nM) | binding result [11]: no binding (tested: 400 nM) | binding result [12]: no binding (tested: 400 nM) | binding result [13]: no binding (tested: 400 nM) | Kd [14]: 13.8 nM

B2: Fcmut-07 (antibody, human IgG1, kappa, L234A L235A)
heavy: B1 heavy with L235A, L236A
light: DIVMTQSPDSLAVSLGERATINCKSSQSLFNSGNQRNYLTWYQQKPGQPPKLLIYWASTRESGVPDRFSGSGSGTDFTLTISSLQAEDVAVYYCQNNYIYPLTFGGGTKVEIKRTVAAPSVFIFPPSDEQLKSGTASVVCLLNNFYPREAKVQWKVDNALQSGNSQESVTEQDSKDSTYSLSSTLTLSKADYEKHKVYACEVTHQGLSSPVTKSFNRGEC
notes: IgG1-mut of Fcmut-01: L234A + L235A + deletion of 329 + G at 330 (EU index)
Kd [1]: 2.47 nM | Response [1]: 0.154 nm | koff [1]: 0.0002 s⁻¹ | kon [1]: 80900 M⁻¹ s⁻¹ | Kd [5]: 374 nM | Response [6]: -0.0134 nm | binding result [7]: no binding (tested: 400 nM) | binding result [8]: no binding (tested: 400 nM) | binding result [9]: no binding (tested: 400 nM) | binding result [15]: no binding (tested: 400 nM) | binding result [10]: no binding (tested: 400 nM) | binding result [11]: no binding (tested: 400 nM) | binding result [12]: no binding (tested: 400 nM) | binding result [13]: no binding (tested: 400 nM)

Now from value to binder:

Kd [1]: 2.44 nM | Response [1]: 0.144 nm | koff [1]: 0.0002 s⁻¹ | kon [1]: 81900 M⁻¹ s⁻¹ | Kd [5]: 284 nM | Response [6]: -0.0035 nm | binding result [7]: no binding (tested: 400 nM) | binding result [8]: no binding (tested: 400 nM) | binding result [9]: no binding (tested: 400 nM) | binding result [15]: no binding (tested: 400 nM) | binding result [10]: no binding (tested: 400 nM) | binding result [11]: no binding (tested: 400 nM) | binding result [12]: no binding (tested: 400 nM) | binding result [13]: no binding (tested: 400 nM)
B3: Fcmut-06 (antibody, human IgG1, kappa, L234A L235A)
heavy: B1 heavy with L235A, L236A, G330A
light: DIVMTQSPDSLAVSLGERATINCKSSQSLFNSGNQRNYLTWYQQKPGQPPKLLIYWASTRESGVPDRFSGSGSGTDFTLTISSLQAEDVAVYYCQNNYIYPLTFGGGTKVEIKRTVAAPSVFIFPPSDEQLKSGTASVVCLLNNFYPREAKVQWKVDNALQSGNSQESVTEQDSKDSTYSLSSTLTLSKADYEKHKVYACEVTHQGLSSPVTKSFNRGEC
notes: IgG1-mut of Fcmut-01: L234A + L235A + deletion of 329 (EU index)

Kd [1]: 2.41 nM | Response [1]: 0.152 nm | koff [1]: 0.0002 s⁻¹ | kon [1]: 82900 M⁻¹ s⁻¹ | binding result [4]: no binding (tested: C1q 40 nM) | Kd [5]: 402 nM | Response [6]: 0.0004 nm | binding result [7]: no binding (tested: 400 nM) | binding result [8]: no binding (tested: 400 nM) | binding result [9]: no binding (tested: 400 nM) | binding result [15]: no binding (tested: 400 nM) | binding result [10]: no binding (tested: 400 nM) | binding result [11]: no binding (tested: 400 nM) | binding result [12]: no binding (tested: 400 nM) | binding result [13]: no binding (tested: 400 nM)
B4: Fcmut-08 (antibody, human IgG1, kappa, L234A L235A)
heavy: QVQLVQSGAEVKKPGSSVKVSCKASGYSFSSYNIHWVRQAPGQGLEWMGYIAPFQGDSRYNQKFKGRVTITADKSTSTAYMELSSLRSEDTAVYYCARLNRGNSLDYWGQGTLVTVSSASTKGPSVFPLAPSSKSTSGGTAALGCLVKDYFPEPVTVSWNSGALTSGVHTFPAVLQSSGLYSLSSVVTVPSSSLGTQTYICNVNHKPSNTKVDKKVEPKSCDKTHTCPPCPAPEAAGGPSVFLFPPKPKDTLMISRTPEVTCVVVDVSHEDPEVKFNWYVDGVEVHNAKTKPREEQYNSTYRVVSVLTVLHQDWLNGKEYKCKVSNKALPIEKTISKAKGQPREPQVYTLPPSREEMTKNQVSLTCLVKGFYPSDIAVEWESNGQPENNYKTTPPVLDSDGSFFLYSKLTVDKSRWQQGNVFSCSVMHEALHNHYTQKSLSLSPGK
light: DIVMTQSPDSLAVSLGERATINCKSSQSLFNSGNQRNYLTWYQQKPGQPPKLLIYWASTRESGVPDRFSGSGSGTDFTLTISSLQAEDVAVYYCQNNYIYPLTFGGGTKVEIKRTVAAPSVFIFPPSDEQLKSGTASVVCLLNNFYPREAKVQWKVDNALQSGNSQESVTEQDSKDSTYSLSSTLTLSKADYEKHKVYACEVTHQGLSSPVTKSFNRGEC
notes: IgG1-mut of Fcmut-01: L234A + L235A + deletion of 329 and 330 (EU index); also called Fcmut-8
